Source: patent US20120149881A1
Blank lines part the entries; values can stand above or below the binder they belong to.

Target: human IgE with the M1′ sequence (long form of membrane IgE) expressed on transduced BJAB or Daudi cells (human), P01854
Assay: cell-based or functional assay

Chain of human IgE with the M1′ sequence (long form of membrane IgE) expressed on transduced BJAB or Daudi cells (human), P01854 (P01854 116-546 I515L limits assumed): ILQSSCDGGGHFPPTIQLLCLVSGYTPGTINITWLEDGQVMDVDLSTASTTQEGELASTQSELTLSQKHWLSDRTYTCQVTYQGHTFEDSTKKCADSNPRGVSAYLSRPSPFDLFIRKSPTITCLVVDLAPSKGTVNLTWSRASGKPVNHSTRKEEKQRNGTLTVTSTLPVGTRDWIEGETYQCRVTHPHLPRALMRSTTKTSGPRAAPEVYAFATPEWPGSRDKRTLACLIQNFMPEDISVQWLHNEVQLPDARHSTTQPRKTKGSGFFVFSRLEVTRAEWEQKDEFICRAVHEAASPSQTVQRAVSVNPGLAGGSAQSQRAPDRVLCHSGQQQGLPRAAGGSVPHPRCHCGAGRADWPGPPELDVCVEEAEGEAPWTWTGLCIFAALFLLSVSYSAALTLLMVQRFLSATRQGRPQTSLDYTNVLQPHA

B2: murine anti-IgE/M1′ antibody 26A11 (antibody)
heavy: EVQLQQSGPELVKPGASVKMSCKASGYTFTDYYMMWVKQSHGKSLEWIGDINPNNYDTSYNQKFKGKATLTVDKSSSTAYIQLNSLTSEDSAVYYCASKAYWGQGTLVTVSAASTTPPSVYPLAPGSAAQTNSMVTLGCLVKGYFPEPVTVTWNSGSLSSGVHTFPAVLQSDLYTLSSSVTVPSSTWPSETVTCNVAHPASSTKVDKKIVPRDCGCKPCICTVPEVSSVFIFPPKPKDVLTITLTPKVTCVVVDISKDDPEVQFSWFVDDVEVHTAQTQPREEQFNSTFRSVSELPIMHQDWLNGKEFKCRVNSAAFPAPIEKTISKTKGRPKAPQVYTIPPPKEQMAKDKVSLTCMITDFFPEDITVEWQWNGQPAENYKNTQPIMDTDGSYFVYSKLNVQKSNWEAGNTFTCSVLHEGLHNHHTEKSLSHSPGK
light: DIQMTQTTSSLSASLGDRVTITCRSSQDISNSLNWYQQKPDGPVKLLIYSTSRLHSGVPSRFSGSGSGTDYSLTISNLEQEDLATYFCQQGHTLPWTFGGGTKVEIKRADAAPTVSIFPPSSEQLTSGGASVVCFLNNFYPKDINVKWKIDGSERQNGVLNSWTDQDSKDSTYSMSSTLTLTKDEYERHNSYTCEATHKTSTSPIVKSFNRNEC
apoptosis of Daudi-IgE/Long cells, no crosslinker; concentration at which seen: > 0.1 µg/mL | percent apoptosis of Daudi-IgE/Long cells, no crosslinker: 30 to 50%

B4: afucosylated humanized anti-IgE/M1′ antibody 47H4 v5 (antibody, V domains shown)
VH: EVQLVESGGGLVQPGGSLRLSCAASGFTFSDYGIAWVRQAPGKGLEWVAFISDLAYTIYYADTVTGRFTISRDNSKNTLYLQMNSLRAEDTAVYYCARDNWDAMDYWGQGTLVTVSS
VL: DIQMTQSPSSLSASVGDRVTITCRSSQSLVHNNANTYLHWYQQKPGKAPKLLIYKVSNRFSGVPSRFSGSGSGTDFTLTISSLQPEDFATYYCSQNTLVPWTFGQGTKVEIKR
modifications: here or on the partner: afucosylated Fc carbohydrate (produced in BIOWA cell lines)
EC50 of ADCC: NK-cell lysis of BJAB cells overexpressing human IgE/M1′ (LDH release): 0.83 nM

B5: humanized anti-IgE/M1′ antibody 47H4.v5 (antibody, V domains shown)
VH: EVQLVESGGGLVQPGGSLRLSCAASGFTFSDYGIAWVRQAPGKGLEWVAFISDLAYTIYYADTVTGRFTISRDNSKNTLYLQMNSLRAEDTAVYYCARDNWDAMDYWGQGTLVTVSS
VL: DIQMTQSPSSLSASVGDRVTITCRSSQSLVHNNANTYLHWYQQKPGKAPKLLIYKVSNRFSGVPSRFSGSGSGTDFTLTISSLQPEDFATYYCSQNTLVPWTFGQGTKVEIKR
EC50 of ADCC: NK-cell lysis of BJAB cells overexpressing human IgE/M1′ (LDH release): 6.6 nM

Further lines, results first:

apoptosis of Daudi-IgE/Long cells (Annexin V/PI, 72 h), no crosslinker; concentration at which seen: > 10 µg/mL
B1: murine anti-IgE/M1′ antibody 47H4 (antibody)
heavy: EVKLVESGGGLVQPGGSRKLSCAASGFTFSDYGMAWVRQAPGKGPEWVAFISDLAYTIYYADTVTGRFTISRENAKNTLYLEMSSLRSEDTALYYCARDNWDAMDYWGQGTSVTVSSAKTTPPSSVYPLAPGSAAQTNSMVTLGCLVKGYFPEPVTVTWNSGSLSSGVHTFPAVLQSDLYTLSSSVTVPSSTWPSETVTCNVAHPASSTKVDKKIVPRDCGCKPCICTVPEVSSVFIFPPKPKDVLTITLTPKVTCVVVDISKDDPEVQFSWFVDDVEVHTAQTQPREEQFNSTFRSVSELPIMHQDWLNGKEFKCRVNSAAFPAPIEKTISKTKGRPKAPQVYTIPPPKEQMAKDKVSLTCMITDFFPEDITVEWQWNGQPAENYKNTQPIMDTDGSYFVYSKLNVQKSNWEAGNTFTCSVLHEGLHNHHTEKSLSHSPGK
light: DIVLTQTPLSLPVSLGDQASISCRSSQSLVHNNGNTYLHWYLQKPGQSPKLLIYKVSNRFSGVPDRFSGSGSGTDFTLKISRLEAEDLGVYFCSQNTLVPWTFGGGTKVEIKRADAAPTVSIFPPSSEQLTSGGASVVCFLNNFYPKDINVKWKIDGSERQNGVLNSWTDQDSKDSTYSMSSTLTLTKDEYERHNSYTCEATHKTSTSPIVKSFNRNEC

apoptosis of Daudi-IgE/Long cells (Annexin V/PI, 72 h), no crosslinker; concentration at which seen: > 10 µg/mL
B3: murine anti-IgE/M1′ antibody 7A6 (antibody)
heavy: QVQLQQSGAELVRPGASVTLSCKASGYTFIDYEMHWVKQTPVHGLEWIGAIDPETGTTAYNQKFKGKATLTAAKSSSTAYMELRSLTSEDSAVYYCTRLRPHYDYDNAMDSWGQGTTLTVSSASTKGPSVYPLAPGSAAQTNSMVTLGCLVKGYFPEPVTVTWNSGSLSSGVHTFPAVLQSDLYTLSSSVTVPSSTWPSETVTCNVAHPASSTKVDKKIVPRDCGCKPCICTVPEVSSVFIFPPKPKDVLTITLTPKVTCVVVDISKDDPEVQFSWFVDDVEVHTAQTQPREEQFNSTFRSVSELPIMHQDWLNGKEFKCRVNSAAFPAPIEKTISKTKGRPKAPQVYTIPPPKEQMAKDKVSLTCMITDFFPEDITVEWQWNGQPAENYKNTQPIMDTDGSYFVYSKLNVQKSNWEAGNTFTCSVLHEGLHNHHTEKSLSHSPGK
light: DIVMSQSPSSLTVSVGEKVTLSCKSSQTLLYSTNQKNYLAWYQQKPGQSPKLLIYWASTRESGVPDRFTGSGSGTDFTLTISSVKAEDLAVYYCQQYYSYPYTFGGGTKVEIKRADAAPTVSIFPPSSEQLTSGGASVVCFLNNFYPKDINVKWKIDGSERQNGVLNSWTDQDSKDSTYSMSSTLTLTKDEYERHNSYTCEATHKTSTSPIVKSFNRNEC
